Measured values: the supplement of paper PMC9942255
Values joined by “and” are separate entries in the source; they are usually repeats but may differ in a detail not shown here. Identical values can stand only once.

Test system: Bacillus subtilis DB104 (SP-AmyQ fusion secretion)
Test: AmyQ secretion efficiency, weighted average sort bin (1 = best secretion, 10 = worst) (bin number (weighted average, 1-10)); higher = lower secretion efficiency
In short: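 In this assay, the secretion score is defined as the average bin number weighted by read frequency, normalised to beads per bin, with low-abundance sequences not counted. B. subtilis DB104 cells expressing mature AmyQ behind designed signal peptides (amyE-integrated) were enclosed with fluorescein-starch in ~65 nL alginate beads at about 0.3 cells per bead. Beads grew about 13 h at room temperature, were stained with nile red, and occupied beads went into 10 equally populated green/red fluorescence ratio bins by large-particle flow cytometry, whose amplicons were Illumina-sequenced.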

| Sequence | AmyQ secretion efficiency |
| --- | --- |
| MKKIMSARRRRVLLTIFCFSPQASAAYD | 7.27 |
| MKKKLAAGLTASAIVGTTLVVTPWEAATI | 6.58 |
| MKKIMSGKKGMVLLTIFCFSPQASAAYD | 5.2 |
| MFNRLFRVCFLAALIMAFTLPNSVYAQKR | 2.62 |
| MLKKIALTLCPAIVGSLLFFTAPASQHVS | 5.33 |
| MRKTIFAFLTGLMMFKKRTAASASPD | 6.93 |
| MKKWIYVVLVLSIAGIGGISVSAFSVHAASS | 5.09 |
| MRKYTTKGYQKTYFLSVLSGGHHESKAFPV | 8.3 |
| MKKKQVMLRKKKAAGLGLTALHSAPAAKAAPL | 7.14 |
| MKLKKRVSMFLVALTMCGGLFVTPAKAEEE | 2.9 |
| MRKNRILALFVLSLGLLSFMVTPVSAASK | 2.04 and 2.05 and 2.92 |
| MTKRGIQAFAGGIILATAVLAAVFYLTDEDQAAAV | 5.97 and 6.45 |
| MLKKKWMVRRRKGCLAAGGFSYNAFATEN | 7.58 |
| MLTKRQLTIYIMLLGLIAWFPGAAQAEEK | 2.9 |
| MRGKSAVLLSLIMLIAGFLISFTFQM | 6.75 |
| MRIFKKAVFVIMISFLIATVNVNTAHAAIG | 1.03 |
| MKNMSCKLVVSVTLFFSFLTIGPLAHAQND | 1.22 |
| MKKRRGRGSVLVPALIMSGITLIEANKK | 7.89 |
| MKVLLSALLLLLFAFSPSASGKKL | 4.69 |
| MKKVLMAFIICLSLILDVLAAPPSGAKAESV | 1.95 |
| MRKRKKLSVAVAASFMSLSISLPGVQAAEG | 1.73 |
| MKSCKQLIVCSLAAILLLIPSVSFAADD | 2.66 |
| MKRIRIPMTLALGAALTIAPLSFASPEEN | 8.17 |
| MGGSIILLLAVIIAAAAAGVAFYV | 7.67 |
| MKRKKLLSTLLIGIMLLTFAPSAFAKQD | 1.35 |
| MHLIRAAGAVCLARFNEDQHQAEGENT | 8.19 |

| Sequence | AmyQ secretion efficiency |
| --- | --- |
| MKKWIYTYKVLSIAGIGGFSVHAASS | 6.93 |
| MKKWMATGSLAAAVLLCLMVPQQIQGASS | 2.83 |
| MSLMIVFMTLPLLIVCLAFSSFSASARAASE | 4.54 |
| MRNLTKTSLLLAGLCTAAEEEEEDHASAEES | 6.56 |
| MKKVLMAFIICLSLILRRRKKPPSGAKAESV | 7.24 |
| MMTIWIGMLAAAVLLLMVPKVSLADAA | 5.79 |
| MKKQQYGQSKKVVLGSTLFAGAASAQSI | 7.51 |
| MKSKWMSGLLLVAVGFSFTSVMVHAGET | 7.31 |
| MRMLWRSRRKCKRRLTLAPCAQAAEP | 5.33 |
| MTVPKTMLLSTAAGLLLSLTATSVSAHYV | 6.58 |
| MKKWRGGSQSGAIAIVLFMYTKGEAKAAGM | 6.49 |
| MRKKRVITCVMAASLTLGSLLPAGYASFKED | 3.82 |
| MKRCKRLIVCSLAAILLLIPSVSFAADS | 3.14 |
| MKRIRIPMTLALGAALTIAPLLSFASAEEN | 4.21 |
| MKRKKRGSKRTSALSLGLLVSAPTASFAAES | 6.79 |
| MNIKKFAKQATVLTFTTALLAGGATQAFAATE | 1.07 |
| MKLAKRVSALTPSTTLAITAKAAPK | 7.94 |
| MKSKWMSGLLLVAVGFSFTQVMVHPGET | 7.16 |
| MKRLLVSLRVWMVFLMPDRKTAAAAVY | 6.21 |
| MAIIIAIIAAVIVIAALITFNVRNAKKR | 7.34 |
| MKKKRKKFVAVAALSTTAFGAHASAKEI | 6.1 |
| MKKLLAAGIIGLLTVSIASPSFQAEK | 7.82 |
| MKKWIYVRRVLSIAGIGGFSVHAASS | 7.43 |
| MMKKLFHSTLIVLLFFSFFGVQPIHAAKK | 1.9 |
| MKKRLIGFLVLVPALIMSGITLEEANKK | 7.58 |
| MMKKGRSRQQLTATVLFGTCAVDVPGIISPKTAEAASQ | 7.68 |

| Sequence | AmyQ secretion efficiency |
| --- | --- |
| MKRLLSTLLIGIMLLTFAPSSFAKQD | 2.65 |
| MRKNNNLFFFFMTIFAFLTGLMMFGTITAASASPD | 3.7 |
| MKKRKRRNFKRFIAAFLVLALMILSLVPADVLAKST | 2.47 |
| MFMLFMNASLVLFAVVFVFAVKGAPAKAETH | 5.11 |
| MSMMSKLSLGVASAALGLALVGGGTWAAFN | 5.67 |
| MKKRITYSLLALLAVVAFAFTRSSKAKAAEA | 3.67 |
| MMKKLFHSTLIVLLFFSFFGVSPIHAKKQ | 2.2 |
| MRKKLKWLSFLLGFIILLFLFKYQQSNNDS | 6.25 |
| MAAQTDYKKQVVGILLSLAFVLFVFSCSERHE | 4.02 |
| MKKKQVMLKRKKKKGLGLTALHSAPAAKAAPL | 8.05 |
| MKKAFLVFLSVVLVTTVFLRKKRRKVAQAKQL | 6.27 |
| MKKVLMAFIICLSLILSVLAAPPSGAKQESV | 2.57 |
| MKKRKRRNFKRFIAAFLVLALMISLVPADCLAKST | 3.04 |
| MKKTIMSFVAVAALSTTAFVLSSFGAHASAKEI | 3.42 |
| MLKKKWMVGLLAGCLAAGGFSYNHFATEN | 6.62 |
| MGLGKKLSVAVAASFMSLSISLPGKQAAEG | 4.55 |
| MLKRLIAPMLLSAASLAFFAMSGSAQAAAY | 3.75 |
| MTMLRKIIGWILLLCIIPLFAFTVIASCKEV | 8.74 |
| MNLRKIMSIMNIILLSSALSLGMLVSAAPVLATSS | 2.04 |
| MKKRITYSLLALLAVVAFAFTDSSKAKKAEA | 4.79 |
| MNIKKFAKQATVLTFTTALLAGGATQAFAKKR | 3.43 |
| MKWMCSICCAAVLLAGGAAQCEAV | 3.23 |
| MHLIRAAGAVCLAVVLIRFNEDQHQAEGENT | 5.07 |
| MKIRKMFMFILLSSALSFGMLISAVPALAAGT | 2.01 |
| MFMLTMNNMAIIIAIIAAVIVIAALITFNVRNASPG | 6.62 |
| MNLRKILLSSALSLGMLVSAAPVLHTSS | 6.17 |

| Sequence | AmyQ secretion efficiency |
| --- | --- |
| MRGKSAVLLSLIMLIAGFLISFSFQK | 9.36 |
| MKSKWMSGLLLVAVGFSFTQVMVHSGET | 6.94 |
| MNKPTKGFSTLALAAGSTAAAAGGAGTIHAQQP | 8.05 |
| MRPVFPLILSAVLFLSCFFGARQTERSASKR | 6.76 |
| MKKERGGTYVLCLSLSPLVSTNEVFAATT | 8.09 |
| MKRLLVSLRVWMVFLMNWVTPDRKTDAAAVY | 6.85 |
| MKKIMSAFVGMVLLTIFCRRRQASAAYD | 7.16 |
| MKKQIITATTAVVLGSTLFAGAKSAQSI | 3.92 |
| MKKQIITATTAVVLGSTLFAGAASAQSD | 2.54 |
| MFSRKILLSSALSFGMLISAVPALAAGT | 3.61 |
| MRKLKRVLLLLVTGLFMSLFAVTATASAQTG | 1.02 |
| MKKWLIIAVSLAIAIVLFMYTKGEAKVAGM | 5.3 |
| MRPKRPRKLILSAVLFLSCFFGARQTEASASKR | 4.56 |
| MKQIMIFLTSFMMTGQTALAKDV | 3.81 |
| MKKIVSILFMFGLVMRRKRKKPSTVFAADK | 7.34 |
| MFKKLLLATSALTFSLSLVLPLDGHAKAQED | 2.98 |
| MNKLKRLSMLTVMIASVFIFSSHALGAQY | 1.69 |
| MKKRLIAPMLLSAASLAFFAMSGSYQAAAY | 6.45 |
| MKNMSCKLVVSVTLFFSFLTIGPLAHDQNS | 6.5 |
| MKLRKVLTGSVLSLGLLVSASPAFATRK | 2.53 |
| MTTKYSKQSKQLLCFMPAAKIEHTQASLL | 7.85 |
| MAIIIAIIAAVIVIAALITFNVRNQSPG | 9.31 |
| MKLWMRKTLVVLFLIVFFFLGTVSPPAALMADKP | 3.95 |
| MRIFKKAVFVIMISFLIATVNVNTAHAAEE | 1.56 |
| MKRTWNVCLTALLSVLLVAGSVVPFHAEAKKP | 1.9 |
| MRMLWRMLALCLLALLLAPCAQAAEP | 1.73 |

| Sequence | AmyQ secretion efficiency |
| --- | --- |
| MRKKCSVCKKRRKRLLSCLSGKSAYAATS | 7.64 |
| MLTINLLTIYIMLLGLIAWFPGAAQAEEK | 4.46 |
| MKKFIVFICFFVLFSVHPIAAAAADS | 4.38 |
| MFKKPTISLLIIFLLASAVLAKPIEAHTV | 2.38 |
| MLKRTSFVSLFISSAVLLSILLPSGQAHAQSA | 1.67 |
| MPYLKRVLLLLVTGLFMSLFAVTATASEQTG | 1.36 |
| MKSSSSALLLLLFAFEPSASGKKL | 7.85 |
| MRKKRVITCVMAASLTLGSLLPAGYLSAKED | 4.34 |
| MMKKGQSGSALTATVLFGTCAVDVPGIISPKTAEAASQ | 6.78 |
| MRKAVLLSLIMLIAGFLISFSFQM | 7.21 |
| MKNMSCKLVVSVTLFFSFLTIGPLYHAQNS | 5.32 |
| MNIKKFAKQATVLTFTTALLAGGATQAFAKET | 3.3 |
| MRGKSAVLLSLIMLIAGFLIISFSFQM | 8.29 |
| MKKLLAAGIIGLLTVSIASPSFAASC | 1.59 |
| MKKKQVMLALTAAAGLGLTALHSAPAAKGAPL | 3.51 |
| MKWMCSICCAAVLLAGGATQAEAV | 2.86 |
| MKRTWNVCLTALLSVPFHAEAKKP | 6.8 |
| MGSTWSLIVCLTALLSVLLVAGSVPFHAEAKKP | 4.11 |
| MKKRFSLIMMTGLLFGLTSPAFAAPK | 1.77 |
| MKRIRILALGAALTIAPLSFASAEEN | 3.38 |
| MPYLKRVLLLLVTGLFMSLFAVTATASAEDD | 3.73 |
| MRMLWRSLALCGLALTLAICIAQAAEP | 4.76 |
| MKLWMRKTQKGLFTIVTFGLVSPPAALMADKP | 5.07 |
| MKKQIITATTAVVLGSTLFAGAASMQSI | 3.83 |
